Source: PMC10540840, “PET imaging with [^68Ga]-labeled TGFβ-targeting peptide in a mouse PANC-1 tumor model” (Frontiers in Oncology, 2023)
Ends that are not written are not given here. * marks the point of attachment. DOTA = O=C(O)CN1CCN(CC(=O)O)CCN(CC(=O)*)CCN(CC(=O)O)CC1; PEG (n : 3) = short polyethylene glycol linker, n = 3

Biological target: Transforming growth factor β (human (endogenous in PANC-1))
Sequence (P01137 279-390): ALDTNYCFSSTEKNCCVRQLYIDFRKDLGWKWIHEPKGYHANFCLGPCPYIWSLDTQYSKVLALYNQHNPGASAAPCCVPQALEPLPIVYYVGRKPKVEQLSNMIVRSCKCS

- tumor uptake (%ID/g-mean) of [^68Ga]Ga-P144 by microPET at 1 h in PANC-1 tumor-bearing mice, unblocked group (n = 4): 5.36 %ID/g-mean
Binder: {DOTA-PEG (n : 3)}-TSLDASIWAMMQNA (also: [68Ga] chelated by the DOTA) [[^68Ga]Ga-DOTA-P144]
